We go through 94 variants from the supplement of paper PMC10567573.

First the molecules themselves.
B1: VAMP4 (parent)
chain: FLRGPSGPRFGPRNDKIKHVQNQV
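Further: lentivirally expressed fusions sorted by FACS into six bins by GFP to DsRed ratio, PSI derived from sequencing read proportions per bin multiplied by bin number.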

In this series the parent is B1. Kind of series: protein stability index of a GFP-peptide fusion (GPS, HEK-293T) (PSI 1-6); higher = more stable. As to conditions: c terminus: a fixed tail appended.
As for FLRKPSGPRFGPRNDKIKHVQNQV, the protein stability index worked out at 2.82.

On to FLRWPSGPRFGPRNDKIKHVQNQV, for which the protein stability index came to 1.96.

Turning to FLRQPSGPRFGPRNDKIKHVQNQV, the protein stability index was 3.2.

In the case of FLRRPSGPRFGPRNDKIKHVQNQV, the protein stability index stood at 3.22.

With FLRDPSGPRFGPRNDKIKHVQNQV, the protein stability index came out at 2.99.

FLRFPSGPRFGPRNDKIKHVQNQV: the protein stability index is 2.47.

On to FLRVPSGPRFGPRNDKIKHVQNQV, for which the protein stability index stood at 2.6.

Regarding FLRYPSGPRFGPRNDKIKHVQNQV, the protein stability index was 2.24.

With FLRGPPGPRFGPRNDKIKHVQNQV, the protein stability index is 2.79.

As to FLRGPLGPRFGPRNDKIKHVQNQV, the protein stability index came to 1.54.

Regarding FLRGPYGPRFGPRNDKIKHVQNQV, the protein stability index was 2.11.

Turning to FLRGPGGPRFGPRNDKIKHVQNQV, the protein stability index is 2.49.

Take FLRGPQGPRFGPRNDKIKHVQNQV: the protein stability index is 2.56.

In the case of FLRGPVGPRFGPRNDKIKHVQNQV, the protein stability index turned out to be 2.12.

As to FLRGPKGPRFGPRNDKIKHVQNQV, the protein stability index came to 2.65.

For FLRGPHGPRFGPRNDKIKHVQNQV, the protein stability index is 2.45.

With FLRGPSGPRFGPRNDKPKHVQNQV, the protein stability index came out at 2.84.

Take FLRGPSGPRFGPRNDKDKHVQNQV: the protein stability index was determined as 3.57.

Turning to FLRGPSGPRFGPRNDKAKHVQNQV, the protein stability index worked out at 2.88.

With FLRGPSGPRFGPRNDKQKHVQNQV, the protein stability index was determined as 2.72.

Regarding FLRGPSGPRHGPRNDKIKHVQNQV, the protein stability index worked out at 3.07.

Consider FLRGPSGPREGPRNDKIKHVQNQV, for which the protein stability index was found to be 3.29.

As to FLRGPSGPRQGPRNDKIKHVQNQV, the protein stability index was 3.14.

Consider FLRGPSGPRAGPRNDKIKHVQNQV, for which the protein stability index came out at 2.72.

For the variant FLRGPSGPRDGPRNDKIKHVQNQV, the protein stability index was 3.15.

Consider FLRGPSGPRKGPRNDKIKHVQNQV, for which the protein stability index turned out to be 2.57.

Turning to FLRGPSGPRLGPRNDKIKHVQNQV, the protein stability index was 3.21.

Turning to FLRGPSGPRGGPRNDKIKHVQNQV, the protein stability index amounted to 2.89.

Regarding FLRGPSGPRNGPRNDKIKHVQNQV, the protein stability index was 2.95.

For FLRGPSGPRFGPRNDKIKHVNNQV, the protein stability index came to 3.59.

On to FLRGPSGPRFGPRNDKIKHVCNQV, for which the protein stability index was 1.68.

Take FLRGPSGPRFGPRNDKIKHVKNQV: the protein stability index turned out to be 2.81.

Turning to FLRGPSGPRFGPRNDKIKHVFNQV, the protein stability index was 2.42.

In the case of FLRGPSGPRFGPRNDKIKHVVNQV, the protein stability index is 2.83.

In the case of FLRGPSGPRFGPRNDKIKHVHNQV, the protein stability index stood at 3.2.

As for FLRGPSGPRFGPRNDKIKHVPNQV, the protein stability index stood at 2.91.

Consider FLTGPSGPRFGPRNDKIKHVQNQV, for which the protein stability index was determined as 3.25.

As for FLHGPSGPRFGPRNDKIKHVQNQV, the protein stability index is 3.17.

Take FLVGPSGPRFGPRNDKIKHVQNQV: the protein stability index was found to be 2.08.

Regarding FLGGPSGPRFGPRNDKIKHVQNQV, the protein stability index was determined as 2.74.

As to FLQGPSGPRFGPRNDKIKHVQNQV, the protein stability index was 2.6.

Regarding FLYGPSGPRFGPRNDKIKHVQNQV, the protein stability index is 1.99.

Consider FLNGPSGPRFGPRNDKIKHVQNQV, for which the protein stability index was determined as 2.93.

Take CLRGPSGPRFGPRNDKIKHVQNQV: the protein stability index was determined as 2.85.

Take VLRGPSGPRFGPRNDKIKHVQNQV: the protein stability index is 3.43.

As for PLRGPSGPRFGPRNDKIKHVQNQV, the protein stability index is 4.07.

For RLRGPSGPRFGPRNDKIKHVQNQV, the protein stability index is 3.35.

As to MLRGPSGPRFGPRNDKIKHVQNQV, the protein stability index came out at 3.27.

With TLRGPSGPRFGPRNDKIKHVQNQV, the protein stability index was 3.79.

Consider HLRGPSGPRFGPRNDKIKHVQNQV, for which the protein stability index came to 3.22.

For the variant LLRGPSGPRFGPRNDKIKHVQNQV, the protein stability index amounted to 3.26.

Turning to FLRGPSGPRFGPRNDTIKHVQNQV, the protein stability index was 2.74.

For the variant FLRGPSGPRFGPRNDAIKHVQNQV, the protein stability index turned out to be 3.

Regarding FLRGPSGPRFGPRNDRIKHVQNQV, the protein stability index was found to be 2.75.

For FLRGPSGPRFGPRNDWIKHVQNQV, the protein stability index is 1.86.

For FLRGPSGPRFGPRNDCIKHVQNQV, the protein stability index worked out at 2.18.

As for FLRGPSGPRFGPRNDNIKHVQNQV, the protein stability index was 3.18.

As to FLRGPSGPRFGPRNDVIKHVQNQV, the protein stability index is 2.46.

With FLRGPSGPRFGPRNDGIKHVQNQV, the protein stability index is 3.33.

Turning to FLRGVSGPRFGPRNDKIKHVQNQV, the protein stability index worked out at 2.29.

For the variant FLRGESGPRFGPRNDKIKHVQNQV, the protein stability index worked out at 3.15.

As to FLRGYSGPRFGPRNDKIKHVQNQV, the protein stability index is 2.04.

As for FLRGHSGPRFGPRNDKIKHVQNQV, the protein stability index came to 3.3.

With FLRGLSGPRFGPRNDKIKHVQNQV, the protein stability index was 2.59.

With FLRGASGPRFGPRNDKIKHVQNQV, the protein stability index stood at 2.79.

For FLRGRSGPRFGPRNDKIKHVQNQV, the protein stability index was 2.72.

With FLRGPSGPRFGPRNDKIKHVQPQV, the protein stability index worked out at 2.53.

Regarding FLRGPSGPRFGPRNDKIKHVQEQV, the protein stability index came to 3.94.

As for FLRGPSGPRFGPRNDKIKHVQGQV, the protein stability index came out at 2.77.

With FLRGPSGPRFGPRNDKIKHVQQQV, the protein stability index was 2.48.

Turning to FLRGPSGPRFGPRNDKIKHVQRQV, the protein stability index came out at 2.25.

Regarding FLRGPSGPRFGPRKDKIKHVQNQV, the protein stability index worked out at 2.41.

In the case of FLRGPSGPRFGPRYDKIKHVQNQV, the protein stability index was 2.04.

As to FLRGPSGPRFGPRVDKIKHVQNQV, the protein stability index came out at 2.73.

Take FLRGPSGPRFGPRDDKIKHVQNQV: the protein stability index is 2.96.

FLRGPSGPRFGPRGDKIKHVQNQV: the protein stability index was found to be 2.92.

For FLRGPSGPRFGPWNDKIKHVQNQV, the protein stability index came to 1.87.

On to FLRGPSGPRFGPNNDKIKHVQNQV, for which the protein stability index worked out at 3.74.

Turning to FLRGPSGPRFGPVNDKIKHVQNQV, the protein stability index turned out to be 2.62.

For FLRGPSGPRFGPTNDKIKHVQNQV, the protein stability index was determined as 2.8.

In the case of FLRGPSGPRFGPKNDKIKHVQNQV, the protein stability index was 2.58.

Consider FLRGPSGPRFGPHNDKIKHVQNQV, for which the protein stability index worked out at 2.17.

Turning to FLRGPSGPRFGPANDKIKHVQNQV, the protein stability index worked out at 2.32.

As for FLRGPSGPRFGPRNDKIKHYQNQV, the protein stability index was found to be 2.46.

For the variant FLRGPSGPRFGPRNDKIKHLQNQV, the protein stability index came to 2.9.

With FLRGPSGPRFGPRNDKIKHCQNQV, the protein stability index came to 2.15.

Consider FLRGPSGPRFGPRNDKIKHDQNQV, for which the protein stability index is 3.72.

In the case of FLRGPSGPRFGPRNDKIKHRQNQV, the protein stability index is 3.26.

FLRGPSGPRFGPRNDKIKHTQNQV: the protein stability index is 2.87.

Turning to FLRGPSGPRFGPRNDKIGHVQNQV, the protein stability index was determined as 2.88.

In the case of FLRGPSGPRFGPRNDKIQHVQNQV, the protein stability index is 3.34.

With FLRGPSGPRFGPRNDKIRHVQNQV, the protein stability index is 1.75.

For the variant FLRGPSGPRFGPRNDKISHVQNQV, the protein stability index amounted to 3.11.

Consider FLRGPSGPRFGPRNDKIVHVQNQV, for which the protein stability index was found to be 2.91.
